Assay results as given in patent US20060259987A1 (UNIVERSITY OF UTAH RESEARCH FOUNDATION, published 2006).
Numbering of substitutions follows the chain as printed. Each block holds one binder with its values, some of them ahead of it.

Tests used:
factor Xa [1] = target: T1, factor Xa (human, UniProt P00742 41-179; P00742 235-488, limits assumed); experiment: Kapp fXa/hep relative to plasma.at3
T1 construct: also called fXa; human factor Xa

thrombin [2] = target: T2, thrombin (human, UniProt P00734 328-622); experiment: thrombin +hep: pseudo-first-order loss of chromogenic activity with heparin
Experimental: (§1) Polybrene was added with the chromogenic substrate to quench the heparin dependent reaction. The observed pseudo-first-order rate constants were calculated for each heparin (1 nM-5 nM) concentration from the slope of the log of residual proteinase activity vs. time. This was plotted against the heparin concentration to calculate the second-order rate constant for the inhibition by the heparin-ATIII complex, (Kₕₑₚ) from the equation Kobs=Kₕₑₚ[H]ₒ([AT]ₒ/[AT]ₒ+Kd)+Kuncat[AT]ₒ

thrombin [3] = target: T2, thrombin; experiment: cell-based or functional assay
factor Xa [4] = target: T1, factor Xa; experiment: cell-based or functional assay
factor Xa [5] = target: T1, factor Xa; experiment: factor Xa prog: pseudo-first-order loss of chromogenic activity, no heparin, 25 C
Experimental: (§2) Polybrene was added with the chromogenic substrate to quench the heparin dependent reaction. […] This was plotted against the heparin concentration to calculate the second-order rate constant for the inhibition by the heparin-ATIII complex, (Kₕₑₚ) from the equation Kobs=Kₕₑₚ[H]ₒ([AT]ₒ/[AT]ₒ+Kd)+Kuncat[AT]ₒ

factor Xa [6] = target: T1, factor Xa; experiment: factor Xa +hep: pseudo-first-order loss of chromogenic activity with heparin
Experimental: as §1

thrombin [7] = target: T2, thrombin; experiment: thrombin prog: pseudo-first-order loss of chromogenic activity, no heparin, 25 C
Experimental: as §2

thrombin [8] = target: T2, thrombin; experiment: Kapp IIa/prog relative to plasma.at3
thrombin [9] = target: T2, thrombin; experiment: Kapp IIa/hep relative to plasma.at3
factor Xa [10] = target: T1, factor Xa; experiment: Kapp fXa/prog relative to plasma.at3

T1 sequence (P00742 41-179 limits assumed, chain 1 of 2): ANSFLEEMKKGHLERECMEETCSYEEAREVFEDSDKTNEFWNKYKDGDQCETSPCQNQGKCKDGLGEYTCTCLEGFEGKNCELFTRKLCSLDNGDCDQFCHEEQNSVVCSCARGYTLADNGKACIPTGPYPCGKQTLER
T1 sequence (P00742 235-488 limits assumed, chain 2 of 2): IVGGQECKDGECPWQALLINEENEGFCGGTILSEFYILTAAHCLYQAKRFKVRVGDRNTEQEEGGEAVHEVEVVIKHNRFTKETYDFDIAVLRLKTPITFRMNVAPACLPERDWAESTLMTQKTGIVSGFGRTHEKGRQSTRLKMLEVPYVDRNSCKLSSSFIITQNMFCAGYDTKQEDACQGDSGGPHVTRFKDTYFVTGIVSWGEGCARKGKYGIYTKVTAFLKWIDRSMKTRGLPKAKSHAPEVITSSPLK

Kapp as a percentage of the plasma ATIII value (factor Xa [1]): 85% | kapp (apparent second-order inhibition rate constant) (thrombin [2]): 2.11e+06 M⁻¹ s⁻¹ | IC50 IIa/UFH; HCA #2 (thrombin [3]): 75 nM | IC50 IIa/UFH; HCA #3 (thrombin [3]): 43 nM | IC50 IIa/UFH; HCA #4 (thrombin [3]): 55 nM | rsd. IIa catG; CA #12; stg1 conc 200 (thrombin [3]): 1% | rsd. IIa catG; CA #14; stg1 conc 200 (thrombin [3]): 1% | rsd. IIa catG; CA #15; stg1 conc 200 (thrombin [3]): 1% | rsd. IIa hne; CA #12; stg1 conc 200 (thrombin [3]): 2% | rsd. IIa hne; CA #14; stg1 conc 200 (thrombin [3]): 3% | rsd. IIa hne; CA #15; stg1 conc 200 (thrombin [3]): 4% | rsd. IIa no add; CA #12; stg1 conc 200 (thrombin [3]): 1% | rsd. IIa no add; CA #14; stg1 conc 200 (thrombin [3]): 7% | rsd. IIa no add; CA #15; stg1 conc 200 (thrombin [3]): -1% | IC50 fXa/UFH; HCA #2 (factor Xa [4]): 65 nM | IC50 fXa/UFH; HCA #3 (factor Xa [4]): 46 nM | IC50 fXa/UFH; HCA #4 (factor Xa [4]): 40 nM | rsd. Xa catG; CA #12; stg1 conc 200 (factor Xa [4]): 1% | rsd. Xa catG; CA #14; stg1 conc 200 (factor Xa [4]): 2% | rsd. Xa catG; CA #15; stg1 conc 200 (factor Xa [4]): 0% | rsd. Xa hne; CA #12; stg1 conc 200 (factor Xa [4]): 1% | rsd. Xa hne; CA #14; stg1 conc 200 (factor Xa [4]): 4% | rsd. Xa hne; CA #15; stg1 conc 200 (factor Xa [4]): 1% | rsd. Xa no add; CA #12; stg1 conc 200 (factor Xa [4]): 1% | rsd. Xa no add; CA #14; stg1 conc 200 (factor Xa [4]): 2% | rsd. Xa no add; CA #15; stg1 conc 200 (factor Xa [4]): 1% | kapp (apparent second-order inhibition rate constant) (factor Xa [5]): 24100 M⁻¹ s⁻¹ | kapp (apparent second-order inhibition rate constant) (factor Xa [6]): 489000 M⁻¹ s⁻¹ | kapp (apparent second-order inhibition rate constant) (thrombin [7]): 7310 M⁻¹ s⁻¹ | Kapp as a percentage of the plasma ATIII value (thrombin [8]): 104% | Kapp as a percentage of the plasma ATIII value (thrombin [9]): 36% | Kapp as a percentage of the plasma ATIII value (factor Xa [10]): 1150%
B1: LEAI.480 (other)
chain: SPVDICTAKPRDIPMNPMCIYRSPEKKATEDEGSEQKIPEATNRRVWELSKANSRFATTFYQHLADSKNDNDNIFLSPLSISTAFAMTKLGACNDTLQQLMEVFKFDTISEKTSDQIHFFFAKLNCRLYRKANKASKLVSANRLFGDKSLTFNETYQDISELVYGAKLQPLDFKENAEQSRAAINKWVSNKTEGRITDVIPSEAINELTVLVLVNTIYFKGLWKSKFSPENTRKELFYKADGESCSASMMYQEGKFRYRRVAEGTQVLELPFKGDDITMVLILPKPEKSLAKVEKELTPEVLQEWLDELEEMMLVVHMPRFRIEDGFSLKEQLQDMGLVDLFSPEKSKLPGIVAEGRDDLYVSDAFHKAFLEVNEEGSEAAASTALEAYGRSLNPNRVTFKANRPFLVFIREVPLNTIIFMGRVANPCVK

Kapp as a percentage of the plasma ATIII value (factor Xa [1]): 145% | kapp (apparent second-order inhibition rate constant) (thrombin [2]): 5.37e+06 M⁻¹ s⁻¹ | IC50 IIa/UFH; HCA #4 (thrombin [3]): 25 nM | rsd. IIa catG; CA #14; stg1 conc 200 (thrombin [3]): 1% | rsd. IIa hne; CA #14; stg1 conc 200 (thrombin [3]): 4% | rsd. IIa no add; CA #14; stg1 conc 200 (thrombin [3]): 1% | IC50 fXa/UFH; HCA #4 (factor Xa [4]): 22 nM | rsd. Xa catG; CA #14; stg1 conc 200 (factor Xa [4]): 1% | rsd. Xa hne; CA #14; stg1 conc 200 (factor Xa [4]): 2% | rsd. Xa no add; CA #14; stg1 conc 200 (factor Xa [4]): 0% | kapp (apparent second-order inhibition rate constant) (factor Xa [5]): 5360 M⁻¹ s⁻¹ | kapp (apparent second-order inhibition rate constant) (factor Xa [6]): 831000 M⁻¹ s⁻¹ | kapp (apparent second-order inhibition rate constant) (thrombin [7]): 2920 M⁻¹ s⁻¹ | Kapp as a percentage of the plasma ATIII value (thrombin [8]): 41% | Kapp as a percentage of the plasma ATIII value (thrombin [9]): 91% | Kapp as a percentage of the plasma ATIII value (factor Xa [10]): 256%
B2: LEAI.482 (other)
chain: B1 chain with Y389H
